The values below are quoted from earlier work in paper PMC5828769.

Data set [1] concerns the target angiogenin (Homo sapiens) (UniProt P03950).
Data set [2] deals with actin (AngBP) (Bos taurus) (UniProt P60712).

Chain of UniProt P03950 (P03950 25-147): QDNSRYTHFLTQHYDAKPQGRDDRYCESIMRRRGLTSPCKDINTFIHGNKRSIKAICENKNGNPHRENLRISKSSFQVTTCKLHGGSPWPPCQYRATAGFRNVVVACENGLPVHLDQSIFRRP

For orientation: Ki means the equilibrium dissociation constant of an inhibitor or competing ligand from its target. “PRI (ribonuclease inhibitor) (from UniProt P13489)”: in data set [1], the Ki was under 0.001 pM.

The Kd is the equilibrium constant for the complex coming apart. With angiogenin (from UniProt P10152), the Kd in data set [2] is 500 pM.
